How the values were obtained:
Experiment in all cases: EMSA
TRF2ΔB-F59A = TRF2ΔB-F59A (UniProt Q15554 87-542, F101A)
Myc-TRF2ΔBΔHinge (RRL) = Myc-TRF2ΔBΔHinge (RRL) (UniProt Q15554 87-287+484-542, internal_change)
TRF2ΔBΔTRFH = TRF2ΔBΔTRFH (UniProt Q15554 288-542)
Myc-TRF2ΔB (RRL) = Myc-TRF2ΔB (RRL) (UniProt Q15554 87-542)
TRF2ΔBΔHinge = TRF2ΔBΔHinge (UniProt Q15554 87-287+484-542, internal_change)
TRF2ΔB = TRF2ΔB (UniProt Q15554 87-542)
Myc-TRF2ΔBΔTRFH (RRL) = Myc-TRF2ΔBΔTRFH (RRL) (UniProt Q15554 288-542)

Measured: binding result

B1: 4-repeat telomeric probe (dsDNA)
DNA 1: GTACCCGGGGATCGTCGACTCTAGAGGGGCCCTAACCCTAACCCTAACCCTAACCCGGGCTCGAATTCGATCCTCTAGAGTCGACCTGCAGGCATGCAAGCU
DNA 2: AGCTTGCATGCCTGCAGGTCGACTCTAGAGGATCGAATTCGAGCCCGGGTTAGGGTTAGGGTTAGGGTTAGGGCCCCTCTAGAGTCGACGATCCCCGGGUAC
modifications: Cy5.5-dUTP incorporated by Klenow fill-in (U near both 3' ends)
binds: TRF2ΔB-F59A | Myc-TRF2ΔBΔHinge (RRL) | TRF2ΔBΔTRFH | Myc-TRF2ΔB (RRL) | TRF2ΔBΔHinge | TRF2ΔB | Myc-TRF2ΔBΔTRFH (RRL)

— article doi:10.1101/2024.06.27.600884
